# Data reported in patent publication US20250304640A1 (ORIKINE BIO SL, published 2025).
# T1: IL-10 receptor (IL-10R: IL10RA and IL10RB) on HEK-Blue IL-10 reporter cells (UniProt Q13651 22-578; Q08334 20-325, limits assumed)
# T1 sequence (looked up) 1: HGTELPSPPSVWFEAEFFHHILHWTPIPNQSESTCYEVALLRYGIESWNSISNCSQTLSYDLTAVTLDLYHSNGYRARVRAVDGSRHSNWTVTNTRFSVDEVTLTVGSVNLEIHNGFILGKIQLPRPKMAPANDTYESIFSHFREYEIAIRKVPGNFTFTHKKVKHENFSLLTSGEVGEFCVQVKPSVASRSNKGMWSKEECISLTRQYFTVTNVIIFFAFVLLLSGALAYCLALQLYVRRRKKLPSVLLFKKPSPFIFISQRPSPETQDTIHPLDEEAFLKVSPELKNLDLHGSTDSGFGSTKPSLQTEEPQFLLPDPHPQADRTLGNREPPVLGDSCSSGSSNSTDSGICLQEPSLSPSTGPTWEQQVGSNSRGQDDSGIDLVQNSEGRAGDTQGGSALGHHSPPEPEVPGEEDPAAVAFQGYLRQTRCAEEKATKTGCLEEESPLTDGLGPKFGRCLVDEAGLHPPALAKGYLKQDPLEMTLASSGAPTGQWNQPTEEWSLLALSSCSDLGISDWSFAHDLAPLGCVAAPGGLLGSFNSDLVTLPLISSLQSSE
# T1 sequence (looked up) 2: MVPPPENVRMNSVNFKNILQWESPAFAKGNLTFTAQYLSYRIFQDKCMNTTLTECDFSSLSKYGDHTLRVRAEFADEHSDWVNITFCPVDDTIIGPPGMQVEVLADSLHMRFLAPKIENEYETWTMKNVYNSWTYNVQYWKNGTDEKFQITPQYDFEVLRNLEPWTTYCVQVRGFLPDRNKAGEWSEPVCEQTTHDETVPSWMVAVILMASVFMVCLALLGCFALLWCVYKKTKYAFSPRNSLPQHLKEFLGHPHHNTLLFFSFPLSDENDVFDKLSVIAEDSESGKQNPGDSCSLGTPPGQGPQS
# T2: IL10RA (UniProt Q13651 22-578, limits assumed)
# T2 sequence (looked up): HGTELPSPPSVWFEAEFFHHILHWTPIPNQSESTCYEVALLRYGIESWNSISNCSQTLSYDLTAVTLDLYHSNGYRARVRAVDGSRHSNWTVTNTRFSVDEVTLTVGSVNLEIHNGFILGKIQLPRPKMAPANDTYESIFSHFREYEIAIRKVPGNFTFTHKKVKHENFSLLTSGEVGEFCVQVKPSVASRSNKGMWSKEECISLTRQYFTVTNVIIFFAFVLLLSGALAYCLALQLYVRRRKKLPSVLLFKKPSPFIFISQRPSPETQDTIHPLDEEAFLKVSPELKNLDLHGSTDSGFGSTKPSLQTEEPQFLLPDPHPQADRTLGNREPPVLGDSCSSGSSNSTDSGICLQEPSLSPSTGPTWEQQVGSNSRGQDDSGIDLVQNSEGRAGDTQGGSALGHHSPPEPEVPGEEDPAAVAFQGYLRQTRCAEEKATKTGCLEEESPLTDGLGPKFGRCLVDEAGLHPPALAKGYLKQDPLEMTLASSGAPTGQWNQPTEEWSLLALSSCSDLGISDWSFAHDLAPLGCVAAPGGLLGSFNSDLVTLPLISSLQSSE
# T3: IL10RB (UniProt Q08334 20-325, limits assumed)
# T3 sequence (looked up): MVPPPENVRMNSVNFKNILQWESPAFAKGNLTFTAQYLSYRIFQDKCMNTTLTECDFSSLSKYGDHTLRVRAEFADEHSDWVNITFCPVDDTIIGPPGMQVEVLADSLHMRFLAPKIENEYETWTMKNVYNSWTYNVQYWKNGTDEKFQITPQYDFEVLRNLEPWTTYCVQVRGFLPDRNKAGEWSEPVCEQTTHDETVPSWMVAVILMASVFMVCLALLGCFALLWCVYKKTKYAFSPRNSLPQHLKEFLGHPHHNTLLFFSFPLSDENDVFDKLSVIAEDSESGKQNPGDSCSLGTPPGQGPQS
# What was measured:
# Assay in all cases: cell-based or functional assay
# [1] = target: T1, IL-10 receptor (IL-10R: IL10RA and …)
# [2] = target: T2, IL10RA
# [3] = target: T3, IL10RB
"IL-10 EC-50, HEK-Blue IL-10 reporter cells [1]","EC-50, HEK-Blue IL-10 reporter cells [2]","EC-50, HEK-Blue IL-10 reporter cells [3]",Binder
2.41e-10,–,–,Foldikine10_cut116 (ligand) NKSKAVEQVKNAFNKLQEKGIYKAMSEFDIFINYIEAYMTMNNGGLDYLPNMLRDLRDAFSRVKTFFQMKDQLDNLLLKESLLEDFKGYLGCQALSEMIQFYLEEVMPQAENQDPDIKAHVNSLGENLKTLRLRLRRNHRFLPCENKSKAVEQVKNAFNKLQEKGIYKAMSEFDIFINYIEAYMTMNNGGLDYLPNMLRDLRDAFSRVKTFFQMKDQLDNLLLKESLLEDFKGYLGCQALSEMIQFYLEEVMPQAENQDPDIKAHVNSLGENLKTLRLRLRRNHRFLPCE
–,9.44e-11,9.53e-11,ORK10-003-HiBit (ligand) MTQSENSCTHFPGNLPNMLRDLRDAFSRVKTFFQMKDQLDNLLLKESLLEDFKGYLGCQALSEMIQFYLEEVMPQAENQDPDIKAHVNSLGENLKTLRLRLRRCHRFLPCENKSKAVEQVKNAFNKLQEKGIYKAMSEFDIFINYIEAYLYKTITPEFANMLRDLRDAFSRVKTFFQMKDQLDNLLLKESLLEDFKGYLGCQALSEMIQFYLEEVMPQAENQDPDIKAHVNSLGENLKTLRLRLRRCHRFLPCENKSKAVEQVKNAFNKLQEKGIYKAMSEFDIFINYIEAYMTMGGVSGWRLFKKIS
–,–,1.19e-10,ORK10-003-HiBit N92E (ligand) MTQSENSCTHFPGNLPNMLRDLRDAFSRVKTFFQMKDQLDNLLLKESLLEDFKGYLGCQALSEMIQFYLEEVMPQAENQDPDIKAHVNSLGENLKTLRLRLRRCHRFLPCENKSKAVEQVKNAFNKLQEKGIYKAMSEFDIFINYIEAYLYKTITPEFANMLRDLRDAFSRVKTFFQMKDQLDNLLLKESLLEDFKGYLGCQALSEMIQFYLEEVMPQAENQDPDIKAHVESLGENLKTLRLRLRRCHRFLPCENKSKAVEQVKNAFNKLQEKGIYKAMSEFDIFINYIEAYMTMGGVSGWRLFKKIS
4.95e-10,–,–,Foldikine10_cut116-CSF1-HiBit (ligand) NKSKAVEQVKNAFNKLQEKGIYKAMSEFDIFINYIEAYMTMNNGGLDYLPNMLRDLRDAFSRVKTFFQMKDQLDNLLLKESLLEDFKGYLGCQALSEMIQFYLEEVMPQAENQDPDIKAHVNSLGENLKTLRLRLRRNHRFLPCENKSKAVEQVKNAFNKLQEKGIYKAMSEFDIFINYIEAYMTMNNGGLDYLPNMLRDLRDAFSRVKTFFQMKDQLDNLLLKESLLEDFKGYLGCQALSEMIQFYLEEVMPQAENQDPDIKAHVNSLGENLKTLRLRLRRNHRFLPCEGGGGGSGGSGGSGGSGGSGGSGGSGGSGGGEEVSEYCSHMIGSGHLQSLQRLIDSQMETSCQITFEFVDQEQLKDPVCYLKKAFLLVQDIMEDTMRFRDNTPNAIAIVQLQELSLRLKSCFTKDYEEHDKACVRTFYETPLQLLEKVKNVFNETKNLLDKDWNIFSKNCNNSFAECSSQDGGGVSGWRLFKKIS
